# From patent publication US20180193496A1 (PHILOGEN S P A, published 2018)
# T1: recombinant peptide consisting of amino acids 262-534 of tenascin-W (human, UniProt Q9UQP3 262-534)
# T1 construct: also called recombinant tenascin-W peptide used to isolate the G10 antibody
# T1 sequence: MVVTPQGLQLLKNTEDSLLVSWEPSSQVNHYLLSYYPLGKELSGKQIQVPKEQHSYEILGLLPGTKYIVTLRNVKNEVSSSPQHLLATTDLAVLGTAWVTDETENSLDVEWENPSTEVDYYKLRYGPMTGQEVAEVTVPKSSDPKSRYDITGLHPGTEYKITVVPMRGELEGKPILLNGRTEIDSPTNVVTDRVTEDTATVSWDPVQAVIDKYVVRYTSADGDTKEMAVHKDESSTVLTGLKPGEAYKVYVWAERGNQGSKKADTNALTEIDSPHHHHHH
# B1: anti-human MMP3 antibody CH01 in scFv format (scFv, V domains shown)
# VH: EVQLLESGGGLVQPGGSLRLSCAASGFTFSPYAMSWVRQAPGKGLEWVSAITGQGGVTYYADSVKGRFTISRDNSKNTLYLQMNSLRAEDTAVYYCAKISSFHFDYWGQGTLVTVSS
# VL: EIVLTQSPGTLSLSPGERATLSCRASQSVSSHHLAWYQQKPGQAPRLLIYDASSRATGIPDRFSGSGSGTDFTLTISRLEPEDFAVYYCQQPRGAPTTFGQGTKVEIK
# notes: The scFv is myc-tagged (detected with anti-myc 9E10); also called scFv(CH01)
# B2: antibody G10 in scFv format (scFv, V domains shown)
# VH: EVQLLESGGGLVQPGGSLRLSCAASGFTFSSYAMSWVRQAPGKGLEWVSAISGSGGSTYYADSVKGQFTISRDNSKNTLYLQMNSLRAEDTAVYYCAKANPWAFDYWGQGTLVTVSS
# VL: SELTQDPAVSVALGQTVRITCQGDSLRSYYASWYQQKPGQAPVLVIYGKNNRPSGIPDRFSGSSSGNTASLTITGAQAEDEADYYCNSSGSQRSPVVFGGGTKLTVL
# notes: The monomeric fraction was used in Biacore
# Tests used:
# [1] = molecular target: T2, catalytic domain of human MMP3 (amino acids 100-273), recombinant (human, UniProt P08254 100-273, biotinylated (in the ELISA)); assay: ELISA on biotinylated catalytic domain, scFv
# T2 construct: range 100-273; also called HsMMP3; human MMP3 catalytic domain
# [2] = molecular target: T1, recombinant peptide consisting of amino …; assay: Biacore, tenascin-W 262-534 on a CM-5 chip, scFv
# Description: A monomeric fraction of the purified G10 antibody was analyzed by surface plasmon resonance (BIAcore, 3000 system). A recombinant peptide consisting of amino acids 262-534 of tenascin-W was covalently coupled to the surface of the CM-5 sensor Chip. Twenty-five microliters of each sample were injected at the flow rate of 10 μL/min. The regeneration of the chip was performed with 5 μL of 10 mM glycine-HCl, pH 2.5 (GE Healthcare).
# T2 sequence (P08254 100-273 limits assumed): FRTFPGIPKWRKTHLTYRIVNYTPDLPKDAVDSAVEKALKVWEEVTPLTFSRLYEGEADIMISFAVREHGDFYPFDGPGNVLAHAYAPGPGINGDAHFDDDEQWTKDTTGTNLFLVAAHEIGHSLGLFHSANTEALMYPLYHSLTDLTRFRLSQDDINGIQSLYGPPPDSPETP
Binder,binding result [1],binding result [2]
B1,binds,
B2,,binds
